# Measurements reported in patent US20140087995A1 (published 2014).
# Numbered stars: 1 amine (or outer) side, 2 acyl side, 3 side chain; on linkers, the order of the positions; unused ones are H or OH. Bridge positions count the residues as written; N and C are the ends. Side chains are listed from the residue outwards. Ends that are not written are not given here. * marks the point of attachment. C20 diacid = O=C(O)CCCCCCCCCCCCCCCCCCC(=O)*; γGlu = O=C(O)[C@H](CCC(=O)[*:2])N[*:1]; AEEA = NCCOCCOCC(=O)O
# T1: human amylin receptor (amylin 3(a) receptor: human calcitonin receptor plus RAMP-3) (human, UniProt P30988 25-474; O60896 24-148, limits assumed)
# T1 sequence (looked up) 1: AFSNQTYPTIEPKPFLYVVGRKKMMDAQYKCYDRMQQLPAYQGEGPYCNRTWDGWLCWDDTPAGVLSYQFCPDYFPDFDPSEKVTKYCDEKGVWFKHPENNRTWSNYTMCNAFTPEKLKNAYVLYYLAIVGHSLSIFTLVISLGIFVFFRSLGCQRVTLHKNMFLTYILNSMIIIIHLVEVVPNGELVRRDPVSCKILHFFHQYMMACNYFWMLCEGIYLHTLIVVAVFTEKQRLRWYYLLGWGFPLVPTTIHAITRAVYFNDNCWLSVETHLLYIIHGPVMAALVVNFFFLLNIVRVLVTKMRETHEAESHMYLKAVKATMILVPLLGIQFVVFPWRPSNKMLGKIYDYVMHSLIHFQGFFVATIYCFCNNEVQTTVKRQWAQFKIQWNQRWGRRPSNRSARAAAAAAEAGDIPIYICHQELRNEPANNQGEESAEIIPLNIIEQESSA
# T1 sequence (looked up) 2: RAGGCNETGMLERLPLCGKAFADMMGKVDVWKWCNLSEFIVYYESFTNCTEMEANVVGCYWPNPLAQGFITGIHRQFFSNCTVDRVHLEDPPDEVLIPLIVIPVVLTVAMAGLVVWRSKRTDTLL
# T2: human calcitonin receptor (human, UniProt P30988 25-474)
# T2 sequence (looked up): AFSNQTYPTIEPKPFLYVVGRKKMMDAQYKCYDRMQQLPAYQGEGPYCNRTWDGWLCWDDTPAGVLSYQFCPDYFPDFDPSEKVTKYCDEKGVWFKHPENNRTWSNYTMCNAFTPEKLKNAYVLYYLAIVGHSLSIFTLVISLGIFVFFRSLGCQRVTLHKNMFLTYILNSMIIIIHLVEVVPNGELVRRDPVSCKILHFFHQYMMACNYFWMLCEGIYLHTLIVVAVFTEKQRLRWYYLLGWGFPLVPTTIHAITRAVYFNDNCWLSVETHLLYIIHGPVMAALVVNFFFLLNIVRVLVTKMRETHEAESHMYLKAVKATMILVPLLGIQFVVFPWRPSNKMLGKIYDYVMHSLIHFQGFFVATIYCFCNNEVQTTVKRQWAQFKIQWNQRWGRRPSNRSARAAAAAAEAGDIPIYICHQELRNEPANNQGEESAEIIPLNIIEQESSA
# Assays:
# [1] = biological target: T1, human amylin receptor (amylin 3(a) …); test: cell-based or functional assay
# [2] = biological target: T2, human calcitonin receptor; test: cell-based or functional assay
Binder,Ratio hCT/hAmylin funct. [1] [ratio],hAmylin-R funct. EC50 [1] [nM],hCTR funct. EC50 [2] [nM]
"K([AEEA-γGlu-C20 diacid])CNTATCATQRLANFLRHSSPNFGAIPSSTPVGSNTY-NH2 (disulfide 2-7; N-terminus assumed; SMILES CC[C@H](C)[C@H](NC(=O)[C@H](C)NC(=O)CNC(=O)[C@H](Cc1ccccc1)NC(=O)[C@H](CC(N)=O)NC(=O)[C@@H]1CCCN1C(=O)[C@H](CO)NC(=O)[C@H](CO)NC(=O)[C@H](Cc1c[nH]cn1)NC(=O)[C@H](CCCNC(=N)N)NC(=O)[C@H](CC(C)C)NC(=O)[C@H](Cc1ccccc1)NC(=O)[C@H](CC(N)=O)NC(=O)[C@H](C)NC(=O)[C@H](CC(C)C)NC(=O)[C@H](CCCNC(=N)N)NC(=O)[C@H](CCC(N)=O)NC(=O)[C@@H](NC(=O)[C@H](C)NC(=O)[C@@H]1CSSC[C@H](NC(=O)[C@@H](N)CCCCNC(=O)COCCOCCNC(=O)CC[C@H](NC(=O)CCCCCCCCCCCCCCCCCCC(=O)O)C(=O)O)C(=O)N[C@@H](CC(N)=O)C(=O)N[C@@H]([C@@H](C)O)C(=O)N[C@@H](C)C(=O)N[C@@H]([C@@H](C)O)C(=O)N1)[C@@H](C)O)C(=O)N1CCC[C@H]1C(=O)N[C@@H](CO)C(=O)N[C@@H](CO)C(=O)N[C@H](C(=O)N1CCC[C@H]1C(=O)N[C@H](C(=O)NCC(=O)N[C@@H](CO)C(=O)N[C@@H](CC(N)=O)C(=O)N[C@H](C(=O)N[C@@H](Cc1ccc(O)cc1)C(N)=O)[C@@H](C)O)C(C)C)[C@@H](C)O, Synthetic acylated analogue of human amylin; also called compound 49)",22.5,0.106,2.39
"K([AEEA-γGlu-C20 diacid])CNTATCATQRLANFLRHSSPNFGAIPSSTNVGPNTY-NH2 (disulfide 2-7; N-terminus assumed; SMILES CC[C@H](C)[C@H](NC(=O)[C@H](C)NC(=O)CNC(=O)[C@H](Cc1ccccc1)NC(=O)[C@H](CC(N)=O)NC(=O)[C@@H]1CCCN1C(=O)[C@H](CO)NC(=O)[C@H](CO)NC(=O)[C@H](Cc1c[nH]cn1)NC(=O)[C@H](CCCNC(=N)N)NC(=O)[C@H](CC(C)C)NC(=O)[C@H](Cc1ccccc1)NC(=O)[C@H](CC(N)=O)NC(=O)[C@H](C)NC(=O)[C@H](CC(C)C)NC(=O)[C@H](CCCNC(=N)N)NC(=O)[C@H](CCC(N)=O)NC(=O)[C@@H](NC(=O)[C@H](C)NC(=O)[C@@H]1CSSC[C@H](NC(=O)[C@@H](N)CCCCNC(=O)COCCOCCNC(=O)CC[C@H](NC(=O)CCCCCCCCCCCCCCCCCCC(=O)O)C(=O)O)C(=O)N[C@@H](CC(N)=O)C(=O)N[C@@H]([C@@H](C)O)C(=O)N[C@@H](C)C(=O)N[C@@H]([C@@H](C)O)C(=O)N1)[C@@H](C)O)C(=O)N1CCC[C@H]1C(=O)N[C@@H](CO)C(=O)N[C@@H](CO)C(=O)N[C@H](C(=O)N[C@@H](CC(N)=O)C(=O)N[C@H](C(=O)NCC(=O)N1CCC[C@H]1C(=O)N[C@@H](CC(N)=O)C(=O)N[C@H](C(=O)N[C@@H](Cc1ccc(O)cc1)C(N)=O)[C@@H](C)O)C(C)C)[C@@H](C)O, Synthetic acylated analogue of human amylin; also called compound 50)",17.4,0.038,0.662
"K([γGlu-γGlu-C20 diacid])CNTATCATQRLADFLRHSSPNFGAPLSSTNVGSDTY-NH2 (disulfide 2-7; N-terminus assumed; SMILES CC(C)C[C@H](NC(=O)[C@H](CCCNC(=N)N)NC(=O)[C@H](CCC(N)=O)NC(=O)[C@@H](NC(=O)[C@H](C)NC(=O)[C@@H]1CSSC[C@H](NC(=O)[C@@H](N)CCCCNC(=O)CC[C@H](NC(=O)CC[C@H](NC(=O)CCCCCCCCCCCCCCCCCCC(=O)O)C(=O)O)C(=O)O)C(=O)N[C@@H](CC(N)=O)C(=O)N[C@@H]([C@@H](C)O)C(=O)N[C@@H](C)C(=O)N[C@@H]([C@@H](C)O)C(=O)N1)[C@@H](C)O)C(=O)N[C@@H](C)C(=O)N[C@@H](CC(=O)O)C(=O)N[C@@H](Cc1ccccc1)C(=O)N[C@@H](CC(C)C)C(=O)N[C@@H](CCCNC(=N)N)C(=O)N[C@@H](Cc1c[nH]cn1)C(=O)N[C@@H](CO)C(=O)N[C@@H](CO)C(=O)N1CCC[C@H]1C(=O)N[C@@H](CC(N)=O)C(=O)N[C@@H](Cc1ccccc1)C(=O)NCC(=O)N[C@@H](C)C(=O)N1CCC[C@H]1C(=O)N[C@@H](CC(C)C)C(=O)N[C@@H](CO)C(=O)N[C@@H](CO)C(=O)N[C@H](C(=O)N[C@@H](CC(N)=O)C(=O)N[C@H](C(=O)NCC(=O)N[C@@H](CO)C(=O)N[C@@H](CC(=O)O)C(=O)N[C@H](C(=O)N[C@@H](Cc1ccc(O)cc1)C(N)=O)[C@@H](C)O)C(C)C)[C@@H](C)O, Synthetic acylated analogue of human amylin; also called compound 1)",12,0.224,2.7
"K([γGlu-C20 diacid])CNTATCATQRLANFLRHSSPNFGAIPSSTNVGSKTY-NH2 (disulfide 2-7; N-terminus assumed; SMILES CC[C@H](C)[C@H](NC(=O)[C@H](C)NC(=O)CNC(=O)[C@H](Cc1ccccc1)NC(=O)[C@H](CC(N)=O)NC(=O)[C@@H]1CCCN1C(=O)[C@H](CO)NC(=O)[C@H](CO)NC(=O)[C@H](Cc1c[nH]cn1)NC(=O)[C@H](CCCNC(=N)N)NC(=O)[C@H](CC(C)C)NC(=O)[C@H](Cc1ccccc1)NC(=O)[C@H](CC(N)=O)NC(=O)[C@H](C)NC(=O)[C@H](CC(C)C)NC(=O)[C@H](CCCNC(=N)N)NC(=O)[C@H](CCC(N)=O)NC(=O)[C@@H](NC(=O)[C@H](C)NC(=O)[C@@H]1CSSC[C@H](NC(=O)[C@@H](N)CCCCNC(=O)CC[C@H](NC(=O)CCCCCCCCCCCCCCCCCCC(=O)O)C(=O)O)C(=O)N[C@@H](CC(N)=O)C(=O)N[C@@H]([C@@H](C)O)C(=O)N[C@@H](C)C(=O)N[C@@H]([C@@H](C)O)C(=O)N1)[C@@H](C)O)C(=O)N1CCC[C@H]1C(=O)N[C@@H](CO)C(=O)N[C@@H](CO)C(=O)N[C@H](C(=O)N[C@@H](CC(N)=O)C(=O)N[C@H](C(=O)NCC(=O)N[C@@H](CO)C(=O)N[C@@H](CCCCN)C(=O)N[C@H](C(=O)N[C@@H](Cc1ccc(O)cc1)C(N)=O)[C@@H](C)O)C(C)C)[C@@H](C)O, Synthetic acylated analogue of human amylin; also called compound 35) [N^ε1-[(4S)-4-carboxy-4-(19-carboxynonadecanoylamino)butanoyl]-[Arg17,Pro21,Pro27,Lys35]-h-amylin]",15,0.364,5.46
"K([γGlu-C20 diacid])CNTATCATQRLAEFLRHSSPNFGAIPSSTNVGSRTY-NH2 (disulfide 2-7; N-terminus assumed; SMILES CC[C@H](C)[C@H](NC(=O)[C@H](C)NC(=O)CNC(=O)[C@H](Cc1ccccc1)NC(=O)[C@H](CC(N)=O)NC(=O)[C@@H]1CCCN1C(=O)[C@H](CO)NC(=O)[C@H](CO)NC(=O)[C@H](Cc1c[nH]cn1)NC(=O)[C@H](CCCNC(=N)N)NC(=O)[C@H](CC(C)C)NC(=O)[C@H](Cc1ccccc1)NC(=O)[C@H](CCC(=O)O)NC(=O)[C@H](C)NC(=O)[C@H](CC(C)C)NC(=O)[C@H](CCCNC(=N)N)NC(=O)[C@H](CCC(N)=O)NC(=O)[C@@H](NC(=O)[C@H](C)NC(=O)[C@@H]1CSSC[C@H](NC(=O)[C@@H](N)CCCCNC(=O)CC[C@H](NC(=O)CCCCCCCCCCCCCCCCCCC(=O)O)C(=O)O)C(=O)N[C@@H](CC(N)=O)C(=O)N[C@@H]([C@@H](C)O)C(=O)N[C@@H](C)C(=O)N[C@@H]([C@@H](C)O)C(=O)N1)[C@@H](C)O)C(=O)N1CCC[C@H]1C(=O)N[C@@H](CO)C(=O)N[C@@H](CO)C(=O)N[C@H](C(=O)N[C@@H](CC(N)=O)C(=O)N[C@H](C(=O)NCC(=O)N[C@@H](CO)C(=O)N[C@@H](CCCNC(=N)N)C(=O)N[C@H](C(=O)N[C@@H](Cc1ccc(O)cc1)C(N)=O)[C@@H](C)O)C(C)C)[C@@H](C)O, Synthetic acylated analogue of human amylin; also called compound 51)",14,0.372,5.22
"K([γGlu-C20 diacid])CNTATCATQRLANFLRHSSPNFGAIPSSTNVGSETY-NH2 (disulfide 2-7; N-terminus assumed; SMILES CC[C@H](C)[C@H](NC(=O)[C@H](C)NC(=O)CNC(=O)[C@H](Cc1ccccc1)NC(=O)[C@H](CC(N)=O)NC(=O)[C@@H]1CCCN1C(=O)[C@H](CO)NC(=O)[C@H](CO)NC(=O)[C@H](Cc1c[nH]cn1)NC(=O)[C@H](CCCNC(=N)N)NC(=O)[C@H](CC(C)C)NC(=O)[C@H](Cc1ccccc1)NC(=O)[C@H](CC(N)=O)NC(=O)[C@H](C)NC(=O)[C@H](CC(C)C)NC(=O)[C@H](CCCNC(=N)N)NC(=O)[C@H](CCC(N)=O)NC(=O)[C@@H](NC(=O)[C@H](C)NC(=O)[C@@H]1CSSC[C@H](NC(=O)[C@@H](N)CCCCNC(=O)CC[C@H](NC(=O)CCCCCCCCCCCCCCCCCCC(=O)O)C(=O)O)C(=O)N[C@@H](CC(N)=O)C(=O)N[C@@H]([C@@H](C)O)C(=O)N[C@@H](C)C(=O)N[C@@H]([C@@H](C)O)C(=O)N1)[C@@H](C)O)C(=O)N1CCC[C@H]1C(=O)N[C@@H](CO)C(=O)N[C@@H](CO)C(=O)N[C@H](C(=O)N[C@@H](CC(N)=O)C(=O)N[C@H](C(=O)NCC(=O)N[C@@H](CO)C(=O)N[C@@H](CCC(=O)O)C(=O)N[C@H](C(=O)N[C@@H](Cc1ccc(O)cc1)C(N)=O)[C@@H](C)O)C(C)C)[C@@H](C)O, Synthetic acylated analogue of human amylin; also called compound 27) [N^ε1-[(4S)-4-carboxy-4-(19-carboxynonadecanoylamino)butanoyl]-[Arg17,Pro21,Pro27,Glu35]-h-amylin]",22.6,0.133,3
